The chains are these.
B1: GpH7-B3 variant S337_01G/GpL16-k0 (antibody, human IgG1, kappa)
heavy: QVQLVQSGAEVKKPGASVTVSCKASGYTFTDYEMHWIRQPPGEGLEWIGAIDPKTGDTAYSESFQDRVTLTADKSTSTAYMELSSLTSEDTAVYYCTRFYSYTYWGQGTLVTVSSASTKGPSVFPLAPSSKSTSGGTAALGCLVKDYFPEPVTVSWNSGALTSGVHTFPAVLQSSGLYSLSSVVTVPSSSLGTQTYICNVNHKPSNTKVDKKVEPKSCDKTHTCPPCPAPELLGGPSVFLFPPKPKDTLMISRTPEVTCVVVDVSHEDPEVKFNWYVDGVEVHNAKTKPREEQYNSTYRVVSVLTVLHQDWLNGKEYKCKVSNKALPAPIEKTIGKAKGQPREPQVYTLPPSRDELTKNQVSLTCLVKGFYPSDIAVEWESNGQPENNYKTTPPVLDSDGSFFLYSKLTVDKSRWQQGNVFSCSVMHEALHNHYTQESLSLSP
light: DIVMTQSPLSLPVTPGEPASISCQASESLVHSNRNTYLHWYLQKPGQSPQLLIYKVSNRFSGVPDRFSGSGSGTDFTLKISRVEAEDVGVYYCSQNTHVPPTFGQGTKVEIERTVAAPSVFIFPPSDEQLKSGTASVVCLLNNFYPREAKVQWKVDNALQSGNSQESVTEQDSKDSTYSLSSTLTLSKADYEKHKVYACEVTHQGLSSPVTKSFNRGEC
notes: mutation in both H chains; also called Ho Ab S337_01G; S337G
B2: GpH7-B3 variant T335_09D/GpL16-k0 (antibody, human IgG1, kappa)
heavy: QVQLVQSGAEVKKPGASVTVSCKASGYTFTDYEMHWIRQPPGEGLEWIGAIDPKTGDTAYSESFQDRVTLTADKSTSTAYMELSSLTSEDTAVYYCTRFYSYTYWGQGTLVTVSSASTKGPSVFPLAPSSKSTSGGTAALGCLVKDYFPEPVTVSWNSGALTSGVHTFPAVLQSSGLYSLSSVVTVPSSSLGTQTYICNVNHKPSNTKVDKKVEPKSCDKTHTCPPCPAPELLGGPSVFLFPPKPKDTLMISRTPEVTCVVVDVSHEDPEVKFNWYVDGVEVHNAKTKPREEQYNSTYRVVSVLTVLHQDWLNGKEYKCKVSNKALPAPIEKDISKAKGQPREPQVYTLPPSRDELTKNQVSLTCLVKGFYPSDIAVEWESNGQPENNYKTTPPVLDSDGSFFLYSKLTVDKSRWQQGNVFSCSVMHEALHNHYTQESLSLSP
light: DIVMTQSPLSLPVTPGEPASISCQASESLVHSNRNTYLHWYLQKPGQSPQLLIYKVSNRFSGVPDRFSGSGSGTDFTLKISRVEAEDVGVYYCSQNTHVPPTFGQGTKVEIERTVAAPSVFIFPPSDEQLKSGTASVVCLLNNFYPREAKVQWKVDNALQSGNSQESVTEQDSKDSTYSLSSTLTLSKADYEKHKVYACEVTHQGLSSPVTKSFNRGEC
notes: mutation in both H chains; also called Ho Ab T335_09D; T335D
B3: GpH7-B3 variant S337_19Q/GpL16-k0 (antibody, human IgG1, kappa)
heavy: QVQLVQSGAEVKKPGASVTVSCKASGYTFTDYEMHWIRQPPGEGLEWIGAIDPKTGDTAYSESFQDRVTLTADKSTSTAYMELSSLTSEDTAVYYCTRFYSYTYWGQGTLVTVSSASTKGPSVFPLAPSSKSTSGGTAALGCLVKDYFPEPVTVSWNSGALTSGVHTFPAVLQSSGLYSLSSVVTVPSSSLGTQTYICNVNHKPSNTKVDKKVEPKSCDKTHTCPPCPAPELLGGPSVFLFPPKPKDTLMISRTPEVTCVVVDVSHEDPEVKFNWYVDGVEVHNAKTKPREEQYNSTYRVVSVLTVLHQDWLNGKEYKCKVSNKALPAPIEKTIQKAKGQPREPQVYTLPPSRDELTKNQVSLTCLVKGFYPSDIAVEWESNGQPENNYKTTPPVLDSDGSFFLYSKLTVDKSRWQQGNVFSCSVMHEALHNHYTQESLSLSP
light: DIVMTQSPLSLPVTPGEPASISCQASESLVHSNRNTYLHWYLQKPGQSPQLLIYKVSNRFSGVPDRFSGSGSGTDFTLKISRVEAEDVGVYYCSQNTHVPPTFGQGTKVEIERTVAAPSVFIFPPSDEQLKSGTASVVCLLNNFYPREAKVQWKVDNALQSGNSQESVTEQDSKDSTYSLSSTLTLSKADYEKHKVYACEVTHQGLSSPVTKSFNRGEC
notes: mutation in both H chains; also called Ho Ab S337_19Q; S337Q
B4: GpH7-B3 variant T335_04F/GpL16-k0 (antibody, human IgG1, kappa)
heavy: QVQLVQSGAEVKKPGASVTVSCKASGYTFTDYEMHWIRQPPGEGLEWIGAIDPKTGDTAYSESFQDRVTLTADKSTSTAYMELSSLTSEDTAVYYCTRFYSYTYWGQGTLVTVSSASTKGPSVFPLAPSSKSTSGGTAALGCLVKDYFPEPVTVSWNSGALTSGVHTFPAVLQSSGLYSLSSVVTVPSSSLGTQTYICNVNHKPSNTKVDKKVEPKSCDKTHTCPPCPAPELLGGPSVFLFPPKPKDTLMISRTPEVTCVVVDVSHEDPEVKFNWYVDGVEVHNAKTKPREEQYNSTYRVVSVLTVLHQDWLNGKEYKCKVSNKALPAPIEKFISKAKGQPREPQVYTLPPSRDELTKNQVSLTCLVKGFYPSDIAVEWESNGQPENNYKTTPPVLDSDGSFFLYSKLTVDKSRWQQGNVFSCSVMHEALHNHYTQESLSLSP
light: DIVMTQSPLSLPVTPGEPASISCQASESLVHSNRNTYLHWYLQKPGQSPQLLIYKVSNRFSGVPDRFSGSGSGTDFTLKISRVEAEDVGVYYCSQNTHVPPTFGQGTKVEIERTVAAPSVFIFPPSDEQLKSGTASVVCLLNNFYPREAKVQWKVDNALQSGNSQESVTEQDSKDSTYSLSSTLTLSKADYEKHKVYACEVTHQGLSSPVTKSFNRGEC
notes: mutation in both H chains; also called Ho Ab T335_04F; T335F
B5: GpH7-B3 variant S337_02A/GpL16-k0 (antibody, human IgG1, kappa)
heavy: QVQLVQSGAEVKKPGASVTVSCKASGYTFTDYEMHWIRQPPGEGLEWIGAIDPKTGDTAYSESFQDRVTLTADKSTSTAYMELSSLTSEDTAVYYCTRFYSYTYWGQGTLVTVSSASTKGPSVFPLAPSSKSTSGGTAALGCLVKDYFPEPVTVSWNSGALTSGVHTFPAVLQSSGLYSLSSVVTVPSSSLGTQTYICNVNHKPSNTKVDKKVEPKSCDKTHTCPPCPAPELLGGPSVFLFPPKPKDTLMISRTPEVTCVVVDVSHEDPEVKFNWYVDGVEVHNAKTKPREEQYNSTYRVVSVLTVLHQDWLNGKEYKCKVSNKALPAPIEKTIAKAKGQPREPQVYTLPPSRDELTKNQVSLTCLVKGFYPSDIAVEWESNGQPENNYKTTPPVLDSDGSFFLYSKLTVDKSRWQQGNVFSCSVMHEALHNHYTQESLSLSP
light: DIVMTQSPLSLPVTPGEPASISCQASESLVHSNRNTYLHWYLQKPGQSPQLLIYKVSNRFSGVPDRFSGSGSGTDFTLKISRVEAEDVGVYYCSQNTHVPPTFGQGTKVEIERTVAAPSVFIFPPSDEQLKSGTASVVCLLNNFYPREAKVQWKVDNALQSGNSQESVTEQDSKDSTYSLSSTLTLSKADYEKHKVYACEVTHQGLSSPVTKSFNRGEC
notes: mutation in both H chains; also called Ho Ab S337_02A; S337A
B6: GpH7-B3 variant S337_03V/GpL16-k0 (antibody, human IgG1, kappa)
heavy: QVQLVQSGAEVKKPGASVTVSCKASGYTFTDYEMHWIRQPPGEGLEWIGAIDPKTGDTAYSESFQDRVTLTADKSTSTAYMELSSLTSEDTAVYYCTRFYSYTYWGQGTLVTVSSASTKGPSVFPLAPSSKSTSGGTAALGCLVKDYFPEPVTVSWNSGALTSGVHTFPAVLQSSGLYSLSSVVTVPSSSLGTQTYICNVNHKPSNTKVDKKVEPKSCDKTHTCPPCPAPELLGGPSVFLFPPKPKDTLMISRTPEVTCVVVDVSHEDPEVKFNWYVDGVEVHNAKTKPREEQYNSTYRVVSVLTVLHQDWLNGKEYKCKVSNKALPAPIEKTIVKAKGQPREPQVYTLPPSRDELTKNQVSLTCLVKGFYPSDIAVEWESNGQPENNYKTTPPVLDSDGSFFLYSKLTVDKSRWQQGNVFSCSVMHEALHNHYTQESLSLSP
light: DIVMTQSPLSLPVTPGEPASISCQASESLVHSNRNTYLHWYLQKPGQSPQLLIYKVSNRFSGVPDRFSGSGSGTDFTLKISRVEAEDVGVYYCSQNTHVPPTFGQGTKVEIERTVAAPSVFIFPPSDEQLKSGTASVVCLLNNFYPREAKVQWKVDNALQSGNSQESVTEQDSKDSTYSLSSTLTLSKADYEKHKVYACEVTHQGLSSPVTKSFNRGEC
notes: mutation in both H chains; also called Ho Ab S337_03V; S337V
B7: GpH7-B3 variant T335_05P/GpL16-k0 (antibody, human IgG1, kappa)
heavy: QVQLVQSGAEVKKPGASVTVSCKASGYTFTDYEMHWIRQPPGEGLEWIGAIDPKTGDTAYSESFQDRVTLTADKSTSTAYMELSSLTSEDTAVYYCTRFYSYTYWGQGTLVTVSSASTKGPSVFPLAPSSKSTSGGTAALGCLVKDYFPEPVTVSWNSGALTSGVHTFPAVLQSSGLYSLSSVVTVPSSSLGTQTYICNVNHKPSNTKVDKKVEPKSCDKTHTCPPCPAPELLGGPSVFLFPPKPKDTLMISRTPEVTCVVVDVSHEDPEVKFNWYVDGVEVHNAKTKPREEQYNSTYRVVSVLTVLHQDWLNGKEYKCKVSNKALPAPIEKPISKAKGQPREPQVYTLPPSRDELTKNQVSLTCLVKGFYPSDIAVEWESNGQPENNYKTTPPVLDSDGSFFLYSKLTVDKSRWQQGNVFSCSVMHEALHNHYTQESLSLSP
light: DIVMTQSPLSLPVTPGEPASISCQASESLVHSNRNTYLHWYLQKPGQSPQLLIYKVSNRFSGVPDRFSGSGSGTDFTLKISRVEAEDVGVYYCSQNTHVPPTFGQGTKVEIERTVAAPSVFIFPPSDEQLKSGTASVVCLLNNFYPREAKVQWKVDNALQSGNSQESVTEQDSKDSTYSLSSTLTLSKADYEKHKVYACEVTHQGLSSPVTKSFNRGEC
notes: mutation in both H chains; also called Ho Ab T335_05P; T335P
B8: GpH7-B3 variant S337_20W/GpL16-k0 (antibody, human IgG1, kappa)
heavy: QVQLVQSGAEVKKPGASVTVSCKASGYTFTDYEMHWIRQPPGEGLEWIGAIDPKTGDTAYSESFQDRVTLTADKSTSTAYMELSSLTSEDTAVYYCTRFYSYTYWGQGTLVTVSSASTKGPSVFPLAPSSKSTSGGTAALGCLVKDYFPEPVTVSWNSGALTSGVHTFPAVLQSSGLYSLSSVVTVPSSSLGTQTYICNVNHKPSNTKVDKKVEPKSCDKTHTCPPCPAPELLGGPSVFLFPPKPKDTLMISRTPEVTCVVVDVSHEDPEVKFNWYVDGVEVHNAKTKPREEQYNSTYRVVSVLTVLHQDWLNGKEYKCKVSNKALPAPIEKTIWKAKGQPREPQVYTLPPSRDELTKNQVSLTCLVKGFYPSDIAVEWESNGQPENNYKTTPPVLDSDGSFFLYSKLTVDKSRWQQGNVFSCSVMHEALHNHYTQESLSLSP
light: DIVMTQSPLSLPVTPGEPASISCQASESLVHSNRNTYLHWYLQKPGQSPQLLIYKVSNRFSGVPDRFSGSGSGTDFTLKISRVEAEDVGVYYCSQNTHVPPTFGQGTKVEIERTVAAPSVFIFPPSDEQLKSGTASVVCLLNNFYPREAKVQWKVDNALQSGNSQESVTEQDSKDSTYSLSSTLTLSKADYEKHKVYACEVTHQGLSSPVTKSFNRGEC
notes: mutation in both H chains; also called Ho Ab S337_20W; S337W
B9: GpH7-B3 variant S337_10E/GpL16-k0 (antibody, human IgG1, kappa)
heavy: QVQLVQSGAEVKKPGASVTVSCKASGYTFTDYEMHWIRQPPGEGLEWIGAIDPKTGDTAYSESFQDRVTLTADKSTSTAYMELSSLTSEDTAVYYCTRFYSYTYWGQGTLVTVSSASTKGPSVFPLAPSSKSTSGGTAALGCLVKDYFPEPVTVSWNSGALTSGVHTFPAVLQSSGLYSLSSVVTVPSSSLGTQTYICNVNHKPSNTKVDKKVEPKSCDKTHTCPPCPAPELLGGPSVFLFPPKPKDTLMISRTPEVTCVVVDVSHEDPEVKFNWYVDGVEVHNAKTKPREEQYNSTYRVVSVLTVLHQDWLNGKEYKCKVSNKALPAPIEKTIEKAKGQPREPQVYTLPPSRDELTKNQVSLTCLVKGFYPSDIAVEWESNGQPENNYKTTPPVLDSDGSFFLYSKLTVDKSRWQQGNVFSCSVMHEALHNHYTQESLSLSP
light: DIVMTQSPLSLPVTPGEPASISCQASESLVHSNRNTYLHWYLQKPGQSPQLLIYKVSNRFSGVPDRFSGSGSGTDFTLKISRVEAEDVGVYYCSQNTHVPPTFGQGTKVEIERTVAAPSVFIFPPSDEQLKSGTASVVCLLNNFYPREAKVQWKVDNALQSGNSQESVTEQDSKDSTYSLSSTLTLSKADYEKHKVYACEVTHQGLSSPVTKSFNRGEC
notes: mutation in both H chains; also called Ho Ab S337_10E; S337E
B10: GpH7-B3 variant T335_07I/GpL16-k0 (antibody, human IgG1, kappa)
heavy: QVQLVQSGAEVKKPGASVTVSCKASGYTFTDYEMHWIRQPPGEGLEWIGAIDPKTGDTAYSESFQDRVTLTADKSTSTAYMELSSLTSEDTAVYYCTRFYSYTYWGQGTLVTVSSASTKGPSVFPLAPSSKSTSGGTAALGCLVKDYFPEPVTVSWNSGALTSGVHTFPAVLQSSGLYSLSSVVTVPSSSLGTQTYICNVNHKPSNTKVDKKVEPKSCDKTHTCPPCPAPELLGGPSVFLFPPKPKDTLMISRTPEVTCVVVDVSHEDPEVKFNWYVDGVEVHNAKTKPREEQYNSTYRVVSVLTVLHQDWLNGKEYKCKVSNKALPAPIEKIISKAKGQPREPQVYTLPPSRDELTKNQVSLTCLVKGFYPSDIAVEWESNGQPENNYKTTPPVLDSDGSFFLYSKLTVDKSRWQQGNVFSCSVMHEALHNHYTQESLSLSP
light: DIVMTQSPLSLPVTPGEPASISCQASESLVHSNRNTYLHWYLQKPGQSPQLLIYKVSNRFSGVPDRFSGSGSGTDFTLKISRVEAEDVGVYYCSQNTHVPPTFGQGTKVEIERTVAAPSVFIFPPSDEQLKSGTASVVCLLNNFYPREAKVQWKVDNALQSGNSQESVTEQDSKDSTYSLSSTLTLSKADYEKHKVYACEVTHQGLSSPVTKSFNRGEC
notes: mutation in both H chains; also called Ho Ab T335_07I; T335I
B11: GpH7-B3 variant T335_11K/GpL16-k0 (antibody, human IgG1, kappa)
heavy: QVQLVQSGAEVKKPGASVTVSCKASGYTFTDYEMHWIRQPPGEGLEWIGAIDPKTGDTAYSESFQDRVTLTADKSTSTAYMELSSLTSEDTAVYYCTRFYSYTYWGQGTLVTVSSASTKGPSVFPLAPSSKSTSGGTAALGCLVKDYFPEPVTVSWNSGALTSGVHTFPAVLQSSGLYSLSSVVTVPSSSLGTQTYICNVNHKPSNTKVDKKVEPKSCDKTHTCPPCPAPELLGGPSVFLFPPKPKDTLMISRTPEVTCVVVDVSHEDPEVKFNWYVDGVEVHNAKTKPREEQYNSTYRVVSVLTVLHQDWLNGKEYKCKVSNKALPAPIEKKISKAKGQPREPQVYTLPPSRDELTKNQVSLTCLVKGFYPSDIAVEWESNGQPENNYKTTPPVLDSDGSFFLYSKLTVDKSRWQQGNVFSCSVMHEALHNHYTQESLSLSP
light: DIVMTQSPLSLPVTPGEPASISCQASESLVHSNRNTYLHWYLQKPGQSPQLLIYKVSNRFSGVPDRFSGSGSGTDFTLKISRVEAEDVGVYYCSQNTHVPPTFGQGTKVEIERTVAAPSVFIFPPSDEQLKSGTASVVCLLNNFYPREAKVQWKVDNALQSGNSQESVTEQDSKDSTYSLSSTLTLSKADYEKHKVYACEVTHQGLSSPVTKSFNRGEC
notes: mutation in both H chains; also called Ho Ab T335_11K; T335K

The target of the test is T1, FcγRIa extracellular domain with C-terminal His tag (human, UniProt P12314 16-292).
T1 construct: extracellular domain; also called FcgRI; CD64; not shown: His tag at the C terminus
T1 sequence (P12314 16-292): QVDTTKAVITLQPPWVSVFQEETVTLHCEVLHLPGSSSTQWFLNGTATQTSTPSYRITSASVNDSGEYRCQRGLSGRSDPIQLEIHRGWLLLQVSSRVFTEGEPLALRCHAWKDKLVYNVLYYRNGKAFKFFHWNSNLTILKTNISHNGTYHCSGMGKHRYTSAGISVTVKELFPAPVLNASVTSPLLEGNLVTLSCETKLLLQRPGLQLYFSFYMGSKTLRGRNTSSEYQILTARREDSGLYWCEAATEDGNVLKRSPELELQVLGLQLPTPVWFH
Kind of test: SPR Biacore, relative FcγRIa binding vs GpH7-B3/GpL16-k0. A general note: SPR reads the build-up and loss of mass on a sensor chip optically.
In the case of B1, the Ho/Con_1a was 102 % of HoCon Ab (=100).

For the molecule B2, the Ho/Con_1a was 107 % of HoCon Ab (=100).

Consider B3, for which the Ho/Con_1a is 105 % of HoCon Ab (=100).

B4: the Ho/Con_1a is 105 % of HoCon Ab (=100).

On to B5, for which the Ho/Con_1a is 103 % of HoCon Ab (=100).

As to B6, the Ho/Con_1a was 105 % of HoCon Ab (=100).

B7: the Ho/Con_1a was 106 % of HoCon Ab (=100).

Turning to B8, the Ho/Con_1a is 104 % of HoCon Ab (=100).

Turning to B9, the Ho/Con_1a is 104 % of HoCon Ab (=100).

Regarding B10, the Ho/Con_1a is 105 % of HoCon Ab (=100).

Consider B11, for which the Ho/Con_1a was 103 % of HoCon Ab (=100).
